The target of this test is T1, UL34^(174-194) peptide, unlabelled (HSV-1, UniProt P10218 174-194, N-terminal acetyl; C-terminal amide).
T1 peptide: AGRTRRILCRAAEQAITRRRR
In words: cross-linking.

B1: UL31^(41-50) peptide (UL31 mini-MPR) (peptide)
peptide: Ac-RKSLPPHARK-NH2
On to B1, for which the binding result is listed as “binds”.

B2: UL31^(22-42) peptide (middle of the UL31 MPR) (peptide)
peptide: Ac-RRSRSSAAGGTLGVVRRASRK-NH2
With B2, the binding result is given as “binds”.

For the origin of these results see article doi:10.1101/2021.05.18.444627 (bioRxiv, 2021).
